Molecular target: Kv7.2 G279S (human)
Assay: co-IP; lysates of transfected cells incubated with protein A magnetic beads pre-coated with guinea pig anti-KCNQ2-C2 antibodies; CaM detected by western blot (mouse anti-calmodulin); CaM band normalized to WT

**Q.** Which CaM co-immunoprecipitated, normalized to WT (relative to WT) does the source give for “calmodulin (from UniProt P0DP23 1-149) (natural protein)” here?
**A.** 0.71

Reference: publication PMC7518097
